Measured values reported in patent US9988424 (DUKE UNIVERSITY, dated 2018).
Where two headings read alike, the source gives them in different places.

Tests used:
[1] = target: 92TH023 gp120 (HIV-1)
[2] = target: MN gp120 (HIV-1)
[3] = target: 92TH023 gp120 (HIV-1); remark: listed apart in the source
[4] = target: MN gp120 (HIV-1); remark: listed apart in the source
[5] = target: J08 C.ZM109.V1V2 (HIV-1); assay: SPR
[6] = target: 1C.FD6-ZM109; assay: SPR
[7] = target: T1, AE.A244 gD+ gp120 (HIV-1); assay: ELISA
T1 construct: domain: gp120; also called AE.A244 gp120gD+

[8] = target: J08 A.92RW020V1V2 (HIV-1); assay: ELISA
[9] = target: T2, J08 B.HXB2/BALV1V2 (HIV-1); assay: ELISA
T2 construct: also called J08 B.HXB/BAL V1V2
T2 chain: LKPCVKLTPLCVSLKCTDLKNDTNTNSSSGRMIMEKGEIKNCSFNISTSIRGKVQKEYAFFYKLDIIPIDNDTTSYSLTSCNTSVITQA

[10] = target: J08 C.ZM109.V1V2 (HIV-1); assay: ELISA
[11] = target: A.Q23 V1V2 tags (HIV-1); assay: ELISA
[12] = target: T1, AE.A244 gD+ gp120; assay: ELISA; remark: listed apart in the source
[13] = target: A.Q23 V1V2 tags (HIV-1); assay: ELISA; remark: listed apart in the source
[14] = target: T3, AE.A244 V1/V2 Tags N156QN160Q (HIV-1); assay: ELISA
T3 chain: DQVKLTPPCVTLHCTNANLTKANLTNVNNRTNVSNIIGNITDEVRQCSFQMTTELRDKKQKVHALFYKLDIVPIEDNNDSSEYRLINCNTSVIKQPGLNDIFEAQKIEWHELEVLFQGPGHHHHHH

[15] = target: B. 681-7 gp140C; assay: ELISA, OD405
[16] = target: T4, D.9009SA V1V2 Tags; assay: ELISA, OD405
T4 Env construct: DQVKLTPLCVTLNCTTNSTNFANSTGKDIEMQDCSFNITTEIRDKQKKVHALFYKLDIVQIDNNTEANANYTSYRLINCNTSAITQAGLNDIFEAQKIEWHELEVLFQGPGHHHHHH

[17] = target: T5, A.9004SS V1/V2 tags; assay: ELISA, OD405 at 10 ug/ml
T5 V1V2 tags construct: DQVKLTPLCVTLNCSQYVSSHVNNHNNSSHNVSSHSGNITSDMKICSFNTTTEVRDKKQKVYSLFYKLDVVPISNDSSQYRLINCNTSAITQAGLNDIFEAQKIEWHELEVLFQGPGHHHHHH

[18] = target: B.63521_V1/V2 tags; assay: ELISA, OD405 at 10 ug/ml
[19] = target: B.Case A2 V1/V2 tags; assay: ELISA, OD405 at 10 ug/ml
[20] = target: D.9009SA V1/V2 tags; assay: ELISA, OD405 at 10 ug/ml
[21] = target: T6, A.9004SS V1V2 Tags; assay: ELISA, OD405 at 10 ug/ml mAb
T6 Env construct: T5 V1V2 tags construct

[22] = target: B.63521 gp140C; assay: ELISA, OD405 at 10 ug/ml mAb
[23] = target: T7, B.63521_V1V2 Tags; assay: ELISA, OD405 at 10 ug/ml mAb
T7 Env construct: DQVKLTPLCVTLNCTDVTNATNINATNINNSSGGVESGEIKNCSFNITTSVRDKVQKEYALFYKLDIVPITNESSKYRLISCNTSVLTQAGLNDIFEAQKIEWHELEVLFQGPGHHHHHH

[24] = target: T8, B.Case A2 V1/V2 Tags; assay: ELISA, OD405 at 10 ug/ml mAb
T8 Env construct: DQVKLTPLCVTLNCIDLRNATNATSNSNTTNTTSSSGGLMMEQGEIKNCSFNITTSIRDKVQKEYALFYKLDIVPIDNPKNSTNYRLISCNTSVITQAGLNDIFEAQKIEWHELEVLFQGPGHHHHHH

[25] = target: T9, B.HXB/BAL gp140CFI (HIV-1, UniProt P04578 33-680); assay: ELISA, OD405 at 10 ug/ml mAb
T9 construct: also called B.HxB/Ba gp140 CFI

B1: PG9 (antibody, V domains shown)
VH: QRLVESGGGVVQPGSSLRLSCAASGFDFSRQGMHWVRQAPGQGLEWVAFIKYDGSEKYHADSVWGRLSISRDNSKDTLYLQMNSLRVEDTATYFCVREAGGPDYRNGYNYYDFYDGYYNYHYMDVWGKGTTVTVSS
VL: QSALTQPASVSGSPGQSITISCNGTSNDVGGYESVSWYQQHPGKAPKVVIYDVSKRPSGVSNRFSGSKSGNTASLTISGLQAEDEGDYYCKSLTSTRRRVFGTGTKLTVL
notes: also called mAb PG9; bnAb PG9
[1]
  IC50: 100 to 1000 nM
[2]
  IC50: 10 to 100 nM
[3]
  IC50: 100 to 1000 nM
[4]
  IC50: 10 to 100 nM
[5]
  Kd: 318 nM
[6]
  Kd: 4820 nM
[7]
  EC50: 0.7 nM
[8]
  EC50: 64 nM
[9]
  EC50: 149 nM
[10]
  EC50: 0.23 nM
[11]
  EC50: 14.9 nM
[12]
  EC50: 0.7 nM
[13]
  EC50: 14.9 nM
[14]
  binding result: no binding (tested: 100 ug/ml)
[15]
  binding result: no binding (tested: 10 ug/ml)
[16]
  binding result: no binding (tested: 10 ug/ml)
[17]
  binding result: binds
[18]
  binding result: binds
[19]
  binding result: binds
[20]
  binding result: no binding (tested: 10 ug/ml)
[21]
  binding result: binds
[22]
  binding result: binds
[23]
  binding result: binds
[24]
  binding result: binds
[25]
  binding result: binds
